Measurements as given in patent US20060121022A1 (Chugai, published 2006).
Changes are numbered by the printed parent chain. Values belong to the molecule of their own block, whether it stands above or below them.

Tests used:
[1] = target: T1, recombinant PCI (with Flag tag) (UniProt P05154)
T1 sequence: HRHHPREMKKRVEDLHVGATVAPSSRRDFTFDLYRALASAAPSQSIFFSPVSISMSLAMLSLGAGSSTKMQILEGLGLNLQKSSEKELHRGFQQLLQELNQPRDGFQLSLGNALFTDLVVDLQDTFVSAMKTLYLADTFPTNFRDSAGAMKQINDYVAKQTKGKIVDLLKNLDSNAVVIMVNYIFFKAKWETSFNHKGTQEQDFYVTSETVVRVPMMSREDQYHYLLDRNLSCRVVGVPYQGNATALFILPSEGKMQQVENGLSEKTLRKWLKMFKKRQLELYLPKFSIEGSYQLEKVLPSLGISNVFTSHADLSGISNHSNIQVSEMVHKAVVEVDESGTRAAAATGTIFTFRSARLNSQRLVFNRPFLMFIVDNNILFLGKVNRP

[2] = target: activated protein C (aPC; protein C from human plasma, activated, SIGMA P-2200) (human, UniProt P04070 43-461); assay: cell-based or functional assay
activated protein C (aPC; protein C from human plasma, activated, SIGMA P-2200), sequence (P04070 43-461): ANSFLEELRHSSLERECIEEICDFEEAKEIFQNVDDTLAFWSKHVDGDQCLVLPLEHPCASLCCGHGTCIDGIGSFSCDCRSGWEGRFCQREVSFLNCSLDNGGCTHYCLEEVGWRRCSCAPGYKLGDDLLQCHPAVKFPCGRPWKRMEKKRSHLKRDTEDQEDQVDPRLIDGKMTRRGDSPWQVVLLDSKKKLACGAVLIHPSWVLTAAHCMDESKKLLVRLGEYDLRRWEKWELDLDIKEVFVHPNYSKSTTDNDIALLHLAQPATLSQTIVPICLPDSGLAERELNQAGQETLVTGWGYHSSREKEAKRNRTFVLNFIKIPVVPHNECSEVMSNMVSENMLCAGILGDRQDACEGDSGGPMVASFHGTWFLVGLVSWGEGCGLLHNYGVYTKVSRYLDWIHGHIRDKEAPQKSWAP

Molecule: activated protein C (aPC; protein C from human plasma, activated, SIGMA P-2200)
absorbance (at 405 nm), substrate S-2366; CONTROL (aPC with PCI, no antibody), AVERAGE (absorbance at 405 nm) [1]: 0.262
absorbance (at 405 nm), substrate S-2366; CONTROL (aPC with PCI, no antibody), first replicate (absorbance at 405 nm) [1]: 0.278
absorbance (at 405 nm), substrate S-2366; CONTROL (aPC with PCI, no antibody), second replicate (absorbance at 405 nm) [1]: 0.245

B1: anti-aPC antibody aPC#123 (hybridoma well No. 123) (antibody, IgG2b, V domains shown)
VH: QVQLQQSGPELVKPGASVKISCKASGYAFSSSWMNWVKQRPGQGLEWIGRIYPGDGDTNYNGKFRGKATLTADKSSSTAYMQLTSLTSVDSAVYFCARWGITTAAWFAYWGQGTLVTVSA
VL: DIQMTQSPASLSASVGETVTITCRTSENIYSYLAWYQQKQGKSPQLLVNNAKTLAEGVPSRFSGSGSGTQFSLKINSLQPEDFGTYYCQHYYGTPPTFGGGTKLEIK
…ON SUPPRESSION RATE (%), EXPERIMENT 1 (APTT coagulation time, human plasma) [2]: 23.4%
…ON SUPPRESSION RATE (%), EXPERIMENT 2 (APTT coagulation time, human plasma) [2]: 20.7%

B4: anti-aPC antibody aPC#79 (hybridoma well No. 79) (antibody, IgG2b, V domains shown)
VH: QVQLQQSGAELARPGASVKLSCKASGYTFTDSYMNWVKQRTGQGLEWIGEVYPETGNSYYNEKFKGKATLTADRSSKTAYMQLNSLTSEDSAVYFCTRGGTGFDYWGQGTTLTVSS
VL: QIVLAQSPAIMSASLGERVTMTCTASSSVSSSYLHWYQQKPGSSPKAWIYSTSNLASGAPTRFSGSGSGTSYSLTISSMEAEDAATYYCHQYHRSPFTFGSGTKLEIK
…ON SUPPRESSION RATE (%), EXPERIMENT 1 (APTT coagulation time, human plasma) [2]: 88%
…ON SUPPRESSION RATE (%), EXPERIMENT 2 (APTT coagulation time, human plasma) [2]: 68.3%

Next, values leading:

…ON SUPPRESSION RATE (%), EXPERIMENT 1 (APTT coagulation time, human plasma) [2]: 24.5%
…ON SUPPRESSION RATE (%), EXPERIMENT 2 (APTT coagulation time, human plasma) [2]: 28.2%
B2: anti-aPC antibody aPC#285 (hybridoma well No. 285) (antibody, IgG1, V domains shown)
VH: QVQLQQSGSEVVKPGASVKISCKASGYAFSRSWMNWVKQRPGQGLEWIGRIYPGDGDSIYNGKFKGKATLTADKSSTTAYMHLNSLTSVDSAVYFCARWGSSGSSWFAYWGQGTLVTVSA
VL: B1 VL with V15M, Q37R, N49Y, K74R, T85S, Y87F, T94S, P96Y

…ON SUPPRESSION RATE (%), EXPERIMENT 1 (APTT coagulation time, human plasma) [2]: 33.8%
…ON SUPPRESSION RATE (%), EXPERIMENT 2 (APTT coagulation time, human plasma) [2]: 21.6%
B3: anti-aPC antibody aPC#281 (hybridoma well No. 281) (antibody, IgG1, V domains shown)
VH: QIQLVQSGPELEKPGETVRISCKASGYTFTDYSLHWVKQAPGKGLKWMGWINTETGEPTYADDLKGRFAFSLETSATTAYLQINNLKNEDTATYFCARGITLDYWGQGTSLTVSS
VL: DNVMSQSPSSLAVSVGEKVTMSCKSSQSLLSSSNQKNFLAWYQQKPGQSPKLLISWASTRHSGVPDRFTGSGSGTDFTLTISSVNAEDLAVYYCQQYYRYPLTFGAGTKLELK
